In publication PMC11591715 (2024):

How the values were obtained:
Test in all cases: BLI
[1] = molecular target: T1, m801.3 (anti-EpCAM-IL-2v immunocytokine, 1 anti-EpCAM Fab + 1 IL-2v, IL-2v fused at the N-terminus of the Fc … ( | human, UniProt P60568 21-153, F42A | Y45A | L72G))
[2] = molecular target: m801.2 (anti-EpCAM-IL-2v immunocytokine, 2 anti-EpCAM Fab + 1 IL-2v, IL-2v fused at the C-terminus of IgG1 Fc) (human | , UniProt P60568 21-153, F42A | Y45A | L72G)
[3] = molecular target: T1, m801.3 (anti-EpCAM-IL-2v …); remark: listed apart in the source

koff [1]: 0.00784 s⁻¹ | koff [2]: 0.00412 s⁻¹ | Kd [3]: 55.6 nM
B1: IL-2 receptor β subunit (IL-2Rβ) (receptor)
chain: AVNGTSQFTCFYNSRANISCVWSQDGALQDTSCQVHAWPDRRRWNQTCELLPVSQASWACNLILGAPDSQKLTTVDIVTLRVLCREGVRWRVMAIQDFKPFENLRLMAPISLQVVHVETHRCNISWEISQASHYFERHLEFEARTLSPGHTWEEAPLLTLKQKQEWICLETLTPDTQYEFQVRVKPLQGEFTTWSPWSQPLAFRTKPAALGKDTIPWLGHLLVGLSGAFGFIILVYLLINCRNTGPWLKKVLKCNTPDPSKFFSQLSSEHGGDVQKWLSSPFPSSSFSPGGLAPEISPLEVLERDKVTQLLLQQDKVPEPASLSSNHSLTSCFTNQGYFFFHLPDALEIEACQVYFTYDPYSEEDPDEGVAGAPTGSSPQPLQPLSGEDDAYCTFPSRDDLLLFSPSLLGGPSPPSTAPGGSGAGEERMPPSLQERVPRDWDPQPLGPPTPGVPDLVDFQPPPELVLREAGEEVPDAGPREGVSFPWSRPPGQGEFRALNARLPLNTDAYLSLQELQGQDPTHLV
modifications: biotin (biotinylated antigen)
